Consider two sequences from patent US5503978.

Series [1] concerns AMV reverse transcriptase (Avian myeloblastosis virus). The following applies: intramolecular 3' extension to end of template; 100 nM RT.
For series [2], the target named is T1, HIV-1 reverse transcriptase (HIV-1) (UniProt P04585+P04585). The experiment in a line: inhibition. To be noted: almost no inhibition at 81 nM.
Series [3] addresses T1, HIV-1 reverse transcriptase (HIV-1). The series can be described thus: filter. To be noted: apparent Kd of degenerate library.

Broadly, the Ki is a dissociation constant, usually derived from enzyme kinetics or from competition with a known ligand.

A value given as a limit tells only on which side of the number the result lay.

“ATCCGCCTGATTAGCGATACTTACGTGAGCGTGCTGTCCCCTAAAGGTGATACGTCACTTGAGCAAAATCACCTGCAGGGG [RT26]”: the activity in series [1] came out at 50 % initiation.
In series [2], “CCCCTGCAGGTGATTTTGCTCAAGTNNNNNNNNNNNNNNNNNNNNNNNNNNNNNNNNNNNAGTATCGCTAATCAGGCGGAT [R0 degenerate 35N ssDNA library]” had a Ki greater than 3000 nM. In series [3], the Kd was determined as 1400 nM.
